Experiments:
Cav3.1 [1] = molecular target: T1, Cav3.1 (Homo sapiens, UniProt O43497); experiment: Whole-cell patch clamp of Cav3.1 current in Cav3.1-HEK cells transfected with γ6, γ4, their first transmembrane domains or point mutants (Example 3); assay type: cell-based; set-up: Activation K / Inactivation K: unit not given here; details: for Peak current density: Cav3.1-HEK cells, control 48.43±2.62; for Calcium current density (unit not given): Example 2, control −48.39+/−2.6, fusion series control −46.9+/−5; for Activation K / Activation V½ / Deactivation τ @−100 mV / Inactivation K / Inactivation V½ / Inactivation τ @−20 mV / Time to peak @−25 mV / Activation V peak: Table 3.2; for Normalized Current Density: relative to vector control (100.0%), Table 3.3
T1 construct: expressed in transfected cells; host or cells: HEK-293, stably transfected
T1 sequence (O43497 whole entry, the tested form may be a part): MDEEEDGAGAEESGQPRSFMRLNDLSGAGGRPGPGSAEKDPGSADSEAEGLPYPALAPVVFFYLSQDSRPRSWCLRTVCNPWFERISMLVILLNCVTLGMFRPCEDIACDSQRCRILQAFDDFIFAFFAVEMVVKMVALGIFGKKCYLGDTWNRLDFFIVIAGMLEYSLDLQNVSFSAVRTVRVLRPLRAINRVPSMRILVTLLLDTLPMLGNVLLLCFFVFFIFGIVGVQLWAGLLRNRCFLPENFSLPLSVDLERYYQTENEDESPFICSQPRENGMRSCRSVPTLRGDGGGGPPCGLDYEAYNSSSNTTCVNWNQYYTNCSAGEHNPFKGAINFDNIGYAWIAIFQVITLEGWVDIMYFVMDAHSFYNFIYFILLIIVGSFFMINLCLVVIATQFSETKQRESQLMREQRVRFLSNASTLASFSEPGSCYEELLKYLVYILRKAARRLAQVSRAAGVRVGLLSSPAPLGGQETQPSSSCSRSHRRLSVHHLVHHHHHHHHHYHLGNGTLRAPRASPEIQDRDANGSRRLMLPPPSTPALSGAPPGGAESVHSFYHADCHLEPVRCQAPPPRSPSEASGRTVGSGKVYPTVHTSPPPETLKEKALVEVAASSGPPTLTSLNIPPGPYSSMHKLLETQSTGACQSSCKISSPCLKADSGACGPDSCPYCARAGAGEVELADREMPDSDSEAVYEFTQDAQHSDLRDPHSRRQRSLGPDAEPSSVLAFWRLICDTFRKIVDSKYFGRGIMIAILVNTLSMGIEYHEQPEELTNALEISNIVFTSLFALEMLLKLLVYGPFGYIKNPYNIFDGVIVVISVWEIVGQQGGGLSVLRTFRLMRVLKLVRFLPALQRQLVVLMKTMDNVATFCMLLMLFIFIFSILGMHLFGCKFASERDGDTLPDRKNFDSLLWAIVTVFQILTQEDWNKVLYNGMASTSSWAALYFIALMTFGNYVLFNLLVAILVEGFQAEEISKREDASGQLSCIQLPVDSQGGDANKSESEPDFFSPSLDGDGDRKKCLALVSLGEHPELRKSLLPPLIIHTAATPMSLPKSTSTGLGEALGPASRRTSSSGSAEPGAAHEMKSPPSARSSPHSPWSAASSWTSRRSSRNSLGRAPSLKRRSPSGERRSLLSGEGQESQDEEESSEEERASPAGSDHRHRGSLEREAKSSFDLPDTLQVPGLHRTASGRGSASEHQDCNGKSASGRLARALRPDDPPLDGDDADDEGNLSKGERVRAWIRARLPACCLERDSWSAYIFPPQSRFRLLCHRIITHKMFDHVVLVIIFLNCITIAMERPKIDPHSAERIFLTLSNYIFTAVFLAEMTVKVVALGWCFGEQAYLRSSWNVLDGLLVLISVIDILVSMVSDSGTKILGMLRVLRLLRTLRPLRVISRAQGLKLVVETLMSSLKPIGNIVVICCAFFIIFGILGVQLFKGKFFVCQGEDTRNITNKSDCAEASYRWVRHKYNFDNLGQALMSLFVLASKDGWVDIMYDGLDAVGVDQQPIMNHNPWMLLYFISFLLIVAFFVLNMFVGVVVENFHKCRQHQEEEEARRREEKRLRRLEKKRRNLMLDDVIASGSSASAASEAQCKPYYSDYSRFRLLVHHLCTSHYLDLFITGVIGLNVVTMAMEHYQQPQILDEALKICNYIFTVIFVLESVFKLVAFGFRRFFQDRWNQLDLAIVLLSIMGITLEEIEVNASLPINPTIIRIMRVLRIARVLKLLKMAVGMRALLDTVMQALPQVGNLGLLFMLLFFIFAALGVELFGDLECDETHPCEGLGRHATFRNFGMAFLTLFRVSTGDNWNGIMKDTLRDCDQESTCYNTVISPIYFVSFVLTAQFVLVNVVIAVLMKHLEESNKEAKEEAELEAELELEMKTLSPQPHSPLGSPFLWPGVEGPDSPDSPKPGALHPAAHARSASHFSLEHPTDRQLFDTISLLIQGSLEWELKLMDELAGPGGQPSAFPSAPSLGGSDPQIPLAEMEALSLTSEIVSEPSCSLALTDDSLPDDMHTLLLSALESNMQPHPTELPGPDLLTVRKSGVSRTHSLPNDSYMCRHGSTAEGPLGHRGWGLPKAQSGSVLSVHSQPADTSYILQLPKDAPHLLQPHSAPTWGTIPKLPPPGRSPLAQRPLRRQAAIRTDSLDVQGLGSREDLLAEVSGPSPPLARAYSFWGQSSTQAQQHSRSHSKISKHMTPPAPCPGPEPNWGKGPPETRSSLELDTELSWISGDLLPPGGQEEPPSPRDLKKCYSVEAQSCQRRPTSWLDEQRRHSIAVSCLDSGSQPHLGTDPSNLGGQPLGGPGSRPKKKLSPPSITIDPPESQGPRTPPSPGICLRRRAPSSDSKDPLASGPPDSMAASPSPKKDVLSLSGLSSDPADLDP
Experimental: Transfection. HEK-293 cells stably transfected with the Cav3.1 α1 subunit were transiently transfected with vectors containing GFP and γ subunits cDNA when the cultures reached 50% confluency. Lipofectamine 2000 reagent (Invitrogen) was used following manufacturer's protocol.
Electrophysiology. Whole cell Ca2+ currents were recorded at room temperature using an Axon Instruments Axopatch-1D amplifier, a Digidata 1200 interface and pClamp8.0 software about 48 hours after transfection. Cell capacitance was typically around 10 pF, but ranged from 5-40 pF. Recording micropipettes were made from borosilicate glass (2-3 Mohms tip resistance), and filled with solution contained (in mM) 130 NaCl, 10 EGTA, 2 MgCl2, 1 CaCl2, 10 HEPES, 3 Tris-ATP, and 0.3 Li2GTP or 0.3 Tris-GTP. Tyrode's solution was used as the bath solution. It contained (in mM) 137 NaCl, 1 KCl, 1 MgCl2, 0.33 NaH2PO4, 2 CaCl2, 10 HEPES. Both solutions were adjusted to pH 7.4 with NaOH and 280 mOsm with sucrose.
We determined the biophysical characteristics of Cav3.1 currents in transfected HEK-293 cells and effects of the first transmembrane domain of γ4 and γ6 on these properties. Test parameters were optimized for studying Cav3.1 current. The time constant (τ) of deactivation (τdeac) was obtained by single exponential fitting of tail currents. For Cav3.1 currents, the cells were clamped at a holding potential of −100 mV, then depolarized to −20 mV for 4 msec, and repolarized to various voltages from −120 mV to −60 mV at 10 mV interval for 150 msec to elicit tail currents.
The voltage dependence of activation was measured using tail currents. For Cav3.1 currents, the cells were clamped at a holding potential equal to −100 mV, and then depolarized briefly to a conditioning potential, varying from −90 mV to +60 mV, and finally clamped at −60 mV before inactivation. Using this protocol, all tail currents are elicited at the same driving force (at −60 mV), so the current amplitude accurately reflects the number of channels opened during the different conditioning potentials.
A series of conditioning prepulses of 500 msec were used to measure voltage dependence of inactivation in our experiments. Channels initially open and then reach steady-state inactivation during the 500 msec long prepulses. The membrane potential is stepped to a fixed test potential of −20 mV, where maximal peak current is elicited. Currents elicited at each test potential reflect how many channels are not in the inactivated state after a steady-state inactivation; that is, how many channels are available to open. The conditioning prepulse potentials were changed from −120 mV to 50 mV, and the test potential is fixed at −20 mV.
Data collection and analysis. To probe the structural features necessary for the function of γ subunits, we are using HEK-293 cell line stably transfected with Cav3.1 α1 subunit. These cells are then transiently transfected with vectors containing various chimeric, truncated or mutant gamma subunits. […] There is inherent variation in calcium current density in the HEK-Cav3.1 stable cell line likely due to differences in the batch used, passenger number, extent of cellular confluence, or for other unknown reasons. The averaged current density of each test group of cells was normalized to the mean current density of a parallel control group of cells plated from the same batch of cells and analyzed on the same day. A minimum of 5 cells (typically 7 to 10) from each group was used to calculate the mean behavior of test and control cells from each days recording. At least two independent transfections were performed for each test condition. Overall, averages were obtained from 21 control groups of cells that had been transfected with empty vector over several months. The data are pooled together to reduce the variance. […] The current density of the control cells over many months justified the pooling of data recorded from different batches of cells transfected with mutated γ subunits. […]

Cav3.1 [2] = molecular target: T1, Cav3.1; experiment: Whole-cell patch clamp of Cav3.1 dependent LVA calcium current in HEK-293/Cav3.1 cells transiently transfected with γ subunits (Example 1); assay type: cell-based
Experimental: 2.3. Transfection. Untransfected HEK-293 cells, HEK-293 cell lines stably transfected with Cav3.1, and HL-1 cells were transiently transfected with vectors containing γ subunit, GFP, and modified CFP cDNAs using Lipofectamine 2000 reagent (InVitrogen) as per the manufacturer's recommendations. HEK-293 cells were grown to 70-80% confluence before transfection. HL-1 cells were grown to 50-75% confluence before transfection.
2.4. Electrophysiology. Whole-cell calcium currents were recorded using an Axopatch-1 D patch clamp system and Clampex 8.0 software. Pipettes were fabricated from borosilicate glass and had typical resistances of 2-4 MΩ. The pipette solution contained (in mM): 130 NaCl, 10 EGTA, 2 MgCl2, 1 CaCl2, 10 HEPES, 3 Tris-ATP, and either 0.3 Li2GTP or 0.3 Tris-GTP, adjusted to pH 7.4 with NaOH and 280 mOsm with sucrose. The bath solution contained (in mM): 137 NaCl (for HEK-293 experiments) or 120 TEACl (for HL-1 experiments), 1 KCl, 1 MgCl2, 0.33 NaH2PO4, 2 CaCl2 (for HEK-293 experiments) or 5 CaCl2 (for HL-1 experiments), 10 glucose (for HL-1 experiments only), 10 HEPES, and 30 μM TTX (for HEK-293 experiments only), adjusted to pH 7.4 with NaOH (for HEK-293 experiments) or TEAOH (for HL-1 experiments) and 280 mOsm with sucrose. NaCl was used as the major salt in the pipette solution order to eliminate any outward K+ currents.
Recordings from HEK-293 cells were made 48-96 h posttransfection, at which time expression, as measured by GFP fluorescence, peaked. HL-1 cells were used for recording 24-36 h post-transfection. Current densities in HEK-293/Cav3.1 cell experiments were normalized to control for variation in current expression in the different frozen stocks of stable cell lines used. […] HL-1 experiments were performed using a single stock of cells. All HEK-293 data are from current records in which pipette and whole-cell capacitance were about 100% compensated and series resistance was compensated to >80%. Whole-cell capacitance and series resistance were not compensated for HL-1 recordings as currents were typically <100 pA. Series resistance values were typically <10 MX, and no records were used in which the voltage error (as defined by Ver=Imax×Ra) was greater than 5 mV. The holding potential of all protocols used for HEK-293 cells was −100 mV except for steady-state inactivation protocols where the holding potential was −120 mV. The holding potential for protocols used for HL-1 cells was −90 mV. Current-voltage relationships for all HEK-293 and HL-1 cells were measured using 50 ms test depolarizations. Peak current amplitudes for activation curves were determined by fitting tail currents, elicited by stepping membrane voltage from varying test potentials to −60 mV, with the Boltzman equation. Test potential steps for activation protocols were of varied durations, corresponding to the time to peak of the elicited current. Inactivation curves were determined by fitting peak amplitudes of currents, observed in a test pulse to −20 mV, following 500 ms steps to varying potentials, with the Boltzman equation. Time to peak was determined using the current-voltage protocol described above. Inactivation time constants were determined by fitting the decay phase of currents to an exponential equation and deactivation time constants were determined by fitting the decay phase of tail currents to an exponential equation. […] Currents were recorded at 40 kHz and on-line filtered at either 5 or 10 kHz. In some cases currents were off-line filtered at 1 kHz to further reduce noise. Current/voltage relationships and tail currents were recorded from HEK cells using an on-line P/−4 subtraction procedure. Calcium currents recorded from HL-1 cells were off-line leak subtracted. The average membrane capacitance of untransfected HEK-293 cells in pilot experiments was 12.5±1.4 pF (n=8). […]

| Molecule | Peak current density (Cav3.1 [1]) [pA/pF] | Calcium current density (unit not given) (Cav3.1 [1]) | Activation K (Cav3.1 [1]) | Activation V½ (Cav3.1 [1]) [mV] | Deactivation τ @−100 mV (Cav3.1 [1]) [ms] | Inactivation K (Cav3.1 [1]) | Inactivation V½ (Cav3.1 [1]) [mV] | Inactivation τ @−20 mV (Cav3.1 [1]) [ms] | Time to peak @−25 mV (Cav3.1 [1]) | also measured |
| --- | --- | --- | --- | --- | --- | --- | --- | --- | --- | --- |
| γ4 TM1: first transmembrane domain of γ4, SEQ ID NO:17 (LLTTAGAFAAFSLMAIAIGT) | 56.34±5.01 | −48.3+/−3 | 13.29 ± 0.70 | −29.71 ± 2.03 | 2.40 ± 0.22 | −5.92 ± 0.12 | −66.17 ± 0.83 | 25.5 ± 0.9 | 9.00 ± 0.51 | Activation V peak (Cav3.1 [1]; listed as γ4 1stTM): −28.57 ± 0.82 mV; Activation V peak (Cav3.1 [1]; listed as γ4 first transmembrane domain): −28.57±0.82 mV |
| γ6 TM1: first transmembrane domain of γ6, approximately 20 amino acids, SEQ ID NO:12 (KLGLLVAIVGATLAVLAVGT) | 38.65±2.92 | −38.6+/−2.9 | 10.85 ± 0.49 | −30.33 ± 2.32 | 2.01 ± 0.21 | −5.54 ± 0.12 | −62.43 ± 0.65 | 24.0 ± 1.3 | 11.06 ± 0.97 | Decrease of peak current density from control (Cav3.1 [1]; TM1 series, vs blank vector): 20%; Activation V peak (Cav3.1 [1]): −26.00±1.00 mV; Activation V peak (Cav3.1 [1]; listed as γ6 1stTM): −26.00 ± 1.00 mV |
| γ6 L43S: γ6 with leucine at position 43 substituted with serine (protein, UniProt Q9BXT2 1-260, looked up, variant L43S) Voltage-dependent calcium …: MMWSNFFLQEENRRRGAAGRRRAHGQGRSGLTPEREGKVKLASLLAAVGATLAVLSVGTEFWVELNTYKANGSAVCEAAHLGLWKACTKRLWQADVPVDRDTCGPAELPGEANCTYFKFFTTGENARIFQRTTKKEVNLAAAVIAVLGLAVMALGCLCIIMVLSKGAEFLLRVGAVCFGLSGLLLLVSLEVFRHSVRALLQRVSPEPPPAPRLTYEYSWSLGCGVGAGLILLLGAGCFLLLTLPSWPWGSLCPKRGHRAT | – | – | – | – | – | – | – | – | – | Normalized Current Density (Cav3.1 [1]): 48.2%; Normalized Current Density (Cav3.1 [1]; listed as L43S): 48.2%±7.2% |
| γ7: rat calcium channel γ7 subunit (AF361345), SEQ ID NO:50 (protein, listed as Rattus norvegicus) MSHCSSRALTLLSSVFGACGLLLVGIAVSTDYWLYMEEGTVLPQNQTTEVKMALHAGLWRVCFFAGREKGRCVASEYFLEPEINLVTENTENILKTVRTATPFPMVSLFLVFTAFVISNIGHIRPQRTILAFVSGIFFILSGLSLVVGLVLYISSINDEVMNRPSSSEQYFHYRYGWSFAFAASSFLLKEGAGVMSVYLFTKRYAEEEMYRPHPAFYRPRLSDCSDYSGQFLQPEAWRRGRSPSDISSDVSIQMTQNYPPAIKYPDHLHISTSPC | – | – | – | – | – | – | – | – | – | Effect on current kinetics or voltage dependency (Cav3.1 [2]; HEK-293/Cav3.1): did not alter current kinetics or voltage dependency; Peak current density, % of control value (Cav3.1 [2]; HEK-293/Cav3.1, normalized to adCGI vector control, mean±S.E.M.): 99%±8%; Effect on Cav3.1 current (Cav3.1 [2]; HEK-293 cells): no significant effect; Activation V 0.5 (Cav3.1 [2]; Table 2): −28.1 ± 1.2 (n = 11) mV; Activation k (Cav3.1 [2]; Table 2): 11.1 ± 0.3 (n = 11); Deactivation tau @ −100 mV, Fast (Cav3.1 [2]; Table 2): 1.30 ± 0.10 (n = 11) ms; Inactivation Tau @ −20 mV (Cav3.1 [2]; Table 2): 17.2 ± 0.5 (n = 10) ms; Inactivation V 0.5 (Cav3.1 [2]; Table 2): −68.6 ± 1.4 (n = 10) mV; Inactivation k (Cav3.1 [2]; Table 2): 6.0 ± 0.1 (n = 10); Time to peak @ −20 mV (Cav3.1 [2]; Table 2): 7.0 ± 0.4 (n = 11) ms; V peak (Cav3.1 [2]; Table 2): −24.1 ± 0.9 (n = 11) mV |

— US8022177B2, “Peptides and calcium regulation in mammalian cells” (The Board of Trustees of the University of Illinois, priority 2005, dated 2011)
